The values that follow come from PMC12593533, “Unravelling tandem repeat-mediated mutagenesis drive rapid diversification of KPC enzymes: emergence of blaKPC-263 and enhanced resistance to ceftazidime-avibactam” (eBioMedicine, 2025).

Common to all, as to assay: purified protein
The test system of data set [1] is CC(C)(O/N=C(\C(=O)N[C@@H]1C(=O)N2C(C(=O)[O-])=C(C[n+]3ccccc3)CS[C@H]12)c1csc(N)n1)C(=O)O.
The test system of data set [2] is C[C@@H](O)[C@H]1C(=O)N2C(C(=O)O)=C(SCCN=CN)C[C@H]12.
Data set [3] concerns C[C@@H](O)[C@H]1C(=O)N2C(C(=O)O)=C(S[C@@H]3CN[C@H](C(=O)N(C)C)C3)[C@H](C)[C@H]12.

What is called Km is the concentration of substrate that gives half-maximal velocity. A word on the kcat: it is the maximal rate divided by the concentration of active sites. As a reminder, the kcat/Km is the second-order rate constant that governs catalysis at low substrate concentration. Regarding KPC-2 (Klebsiella pneumoniae), in data set [1], the Km was determined as 580 µM, the turnover number (kcat) amounted to 42.9 s⁻¹ and the catalytic efficiency (kcat/Km) was 74000 M⁻¹ s⁻¹. Moreover, in data set [2], the Michaelis constant (Km) is 380 µM, the kcat was determined as 199 s⁻¹ and the kcat/Km is 523000 M⁻¹ s⁻¹. In data set [3], the Michaelis-Menten constant (Km) was 420 µM, the catalytic constant (kcat) turned out to be 112 s⁻¹ and the kcat/Km was 268000 M⁻¹ s⁻¹.
